We go through 2 proteins from patent US20250290037.

This data set has as its target 488-labeled fibrillized-Aβ (1-42) (Anaspec), P05067.

Chain of 488-labeled fibrillized-Aβ (1-42) (Anaspec), P05067 (P05067 whole entry, looked up, tested part not stated): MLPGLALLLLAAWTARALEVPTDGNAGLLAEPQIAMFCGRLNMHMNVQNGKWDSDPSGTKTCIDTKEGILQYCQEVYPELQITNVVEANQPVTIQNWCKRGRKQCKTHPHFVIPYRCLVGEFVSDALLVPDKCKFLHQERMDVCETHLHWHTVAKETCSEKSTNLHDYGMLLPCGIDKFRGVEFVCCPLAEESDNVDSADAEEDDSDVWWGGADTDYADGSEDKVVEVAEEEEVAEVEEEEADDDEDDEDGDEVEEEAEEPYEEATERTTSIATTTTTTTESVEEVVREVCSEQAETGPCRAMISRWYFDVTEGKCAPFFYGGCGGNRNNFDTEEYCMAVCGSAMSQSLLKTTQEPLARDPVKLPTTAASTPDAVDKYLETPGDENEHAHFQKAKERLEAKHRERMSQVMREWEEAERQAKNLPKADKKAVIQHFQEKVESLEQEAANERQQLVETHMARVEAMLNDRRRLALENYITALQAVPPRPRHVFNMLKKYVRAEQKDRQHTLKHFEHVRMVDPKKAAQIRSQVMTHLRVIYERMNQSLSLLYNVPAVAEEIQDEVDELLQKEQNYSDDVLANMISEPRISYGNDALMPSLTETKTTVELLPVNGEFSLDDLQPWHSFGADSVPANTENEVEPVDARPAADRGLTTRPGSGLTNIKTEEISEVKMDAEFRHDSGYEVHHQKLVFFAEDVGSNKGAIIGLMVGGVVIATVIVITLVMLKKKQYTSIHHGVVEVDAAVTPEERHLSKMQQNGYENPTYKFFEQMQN

B1: membrane-bound Neprilysin (full-length Neprilysin; includes transmembrane and cytoplasmic domains) (protein)
chain: GKSESQMDITDINTPKPKKKQRWTPLEISLSVLVLLLTIIAVTMIALYATYDDGICKSSDCIKSAARLIQNMDATTEPCTDFFKYACGGWLKRNVIPETSSRYGNFDILRDELEVVLKDVLQEPKTEDIVAVQKAKALYRSCINESAIDSRGGEPLLKLLPDIYGWPVATENWEQKYGASWTAEKAIAQLNSKYGKKVLINLFVGTDDKNSVNHVIHIDQPRLGLPSRDYYECTGIYKEACTAYVDFMISVARLIRQEERLPIDENQLALEMNKVMELEKEIANATAKPEDRNDPMLLYNKMTLAQIQNNFSLEINGKPFSWLNFTNEIMSTVNISITNEEDVVVYAPEYLTKLKPILTKYSARDLQNLMSWRFIMDLVSSLSRTYKESRNAFRKALYGTTSETATWRRCANYVNGNMENAVGRLYVEAAFAGESKHVVEDLIAQIREVFIQTLDDLTWMDAETKKRAEEKALAIKERIGYPDDIVSNDNKLNNEYLELNYKEDEYFENIIQNLKFSQSKQLKKLREKVDKDEWISGAAVVNAFYSSGRNQIVFPAGILQPPFFSAQQSNSLNYGGIGMVIGHEITHGFDDNGRNFNKDGDLVDWWTQQSASNFKEQSQCMVYQYGNFSWDLAGGQHLNGINTLGENIADNGGLGQAYRAYQNYIKKNGEEKLLPGLDLNHKQLFFLNFAQVWCGTYRPEYAVNSIKTDVHSPGNFRIIGTLQNSAEFSEAFHCRKNSYMNPEKKCRVW
Regarding B1, the “Aβ phagocytosis over time (slope of internalized fluorescent Aβ signal)” value is “Decreasing slope over time, as observed in sNEP and NEP data, indicates increasing degradation of Aβ following internalization”.

B2: secreted Neprilysin (lacks transmembrane and cytoplasmic domains; secretion signal at N-terminus) (protein)
chain: YDDGICKSSDCIKSAARLIQNMDATTEPCTDFFKYACGGWLKRNVIPETSSRYGNFDILRDELEVVLKDVLQEPKTEDIVAVQKAKALYRSCINESAIDSRGGEPLLKLLPDIYGWPVATENWEQKYGASWTAEKAIAQLNSKYGKKVLINLFVGTDDKNSVNHVIHIDQPRLGLPSRDYYECTGIYKEACTAYVDFMISVARLIRQEERLPIDENQLALEMNKVMELEKEIANATAKPEDRNDPMLLYNKMTLAQIQNNFSLEINGKPFSWLNFTNEIMSTVNISITNEEDVVVYAPEYLTKLKPILTKYSARDLQNLMSWRFIMDLVSSLSRTYKESRNAFRKALYGTTSETATWRRCANYVNGNMENAVGRLYVEAAFAGESKHVVEDLIAQIREVFIQTLDDLTWMDAETKKRAEEKALAIKERIGYPDDIVSNDNKLNNEYLELNYKEDEYFENIIQNLKFSQSKQLKKLREKVDKDEWISGAAVVNAFYSSGRNQIVFPAGILQPPFFSAQQSNSLNYGGIGMVIGHEITHGFDDNGRNFNKDGDLVDWWTQQSASNFKEQSQCMVYQYGNFSWDLAGGQHLNGINTLGENIADNGGLGQAYRAYQNYIKKNGEEKLLPGLDLNHKQLFFLNFAQVWCGTYRPEYAVNSIKTDVHSPGNFRIIGTLQNSAEFSEAFHCRKNSYMNPEKKCRVW
B2: the “Aβ phagocytosis over time (slope of internalized fluorescent Aβ signal)” value is “Decreasing slope over time, as observed in sNEP and NEP data, indicates increasing degradation of Aβ following internalization”.
